Numbered stars: 1 amine (or outer) side, 2 acyl side, 3 side chain; on linkers, the order of the positions; unused ones are H or OH. Bridge positions count the residues as written; N and C are the ends. Square brackets hold non-standard residues; d marks the D form. Ends that are not written are not given here. * marks the point of attachment. C20 diacid = O=C(O)CCCCCCCCCCCCCCCCCCC(=O)*; γGlu = O=C(O)[C@H](CCC(=O)[*:2])N[*:1]; Hyp = O=C(O)[C@@H]1C[C@@H](O)CN1; Cit = NC(=O)NCCC[C@H](N)C(=O)O
T1: hAMY3R (human, UniProt P30988)
T1 sequence 1: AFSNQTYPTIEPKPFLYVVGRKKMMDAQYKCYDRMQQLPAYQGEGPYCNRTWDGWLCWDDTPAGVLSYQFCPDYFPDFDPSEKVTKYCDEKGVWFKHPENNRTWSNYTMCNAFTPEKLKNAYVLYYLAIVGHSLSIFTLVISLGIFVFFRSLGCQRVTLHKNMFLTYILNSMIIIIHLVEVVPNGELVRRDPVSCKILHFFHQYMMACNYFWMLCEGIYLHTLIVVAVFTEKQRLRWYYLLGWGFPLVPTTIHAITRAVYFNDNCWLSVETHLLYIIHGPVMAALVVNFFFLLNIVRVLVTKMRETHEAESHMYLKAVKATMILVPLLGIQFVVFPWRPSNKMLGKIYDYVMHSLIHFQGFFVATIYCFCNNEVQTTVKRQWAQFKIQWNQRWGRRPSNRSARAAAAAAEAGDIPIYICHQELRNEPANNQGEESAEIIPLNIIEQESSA
T1 sequence 2: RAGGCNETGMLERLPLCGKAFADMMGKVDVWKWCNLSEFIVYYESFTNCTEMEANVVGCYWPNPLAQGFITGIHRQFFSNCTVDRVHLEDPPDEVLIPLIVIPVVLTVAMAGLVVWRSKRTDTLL


Experiments:
hAMY3R = target: T1, hAMY3R; assay: cell-based or functional assay
hAM1R = hAM1R (human, UniProt Q16602); assay: cell-based or functional assay

Binder | hAMY3R EC50 (cAMP) (hAMY3R) [nM] | hAM1R EC50 (cAMP) (hAM1R) [nM]
KCNTATCTVQWLAHQIYQFTKDKDNVAPPTNVGSNG[Hyp]-NH2 (disulfide 2-7 (inferred); ends not checked) [SEQ ID NO: 317] | 0.004 | > 5000
KCNTATCTVQWLAHQIYQFTDKDKDNVPPTNVGSNG[Hyp]-NH2 (disulfide 2-7 (inferred); ends not checked) [SEQ ID NO: 318] | 0.009 | > 5000
KCNTATCTVQWLAHQIYQFTDKDKDNVAPTNVGSNG[Hyp]-NH2 (disulfide 2-7 (inferred); ends not checked) [SEQ ID NO: 319] | 0.018 | > 5000
KCNTATCTVQWLAHQIYQFTDKAKDNVAPPTNVGSNG[Hyp]-NH2 (disulfide 2-7 (inferred); ends not checked) [SEQ ID NO: 320] | 0.009 | > 5000
KCNTATCTVQWLAEQIYQFTDKDKDNVAPPYNEGSNG[Hyp]-NH2 (disulfide 2-7 (inferred); ends not checked) [SEQ ID NO: 321] | 0.317 | > 5000
GCRFGTCTVQWLAHQIYQFTDKDKDNVAPRTKVGPQG[Hyp]-NH2 (disulfide 2-7 (inferred); ends not checked) [SEQ ID NO: 322] | 0.014 | 1390
GCRTGTCTVQWLAHQIYQFTDKDKDNVAPRTNVGPQG[Hyp]-NH2 (disulfide 2-7 (inferred); ends not checked) [SEQ ID NO: 323] | 0.014 | > 5000
KCNTATCTVQWLAHQIYQFTDKDKDAVAPPTNVGSNG[Hyp]-NH2 (disulfide 2-7 (inferred); ends not checked) [SEQ ID NO: 324] | 0.028 | > 5000
KCNTATCTVQWLAHQIYQFTDKDKDNVAAPTNVGSNG[Hyp]-NH2 (disulfide 2-7 (inferred); ends not checked) [SEQ ID NO: 325] | 0.025 | > 5000
RCQASTCTVA[Cit]LAEQIAQYTDKDKDQVAPPTEVGPNS[Hyp]-NH2 (disulfide 2-7 (inferred); ends not checked) [SEQ ID NO: 33] | 0.008 | > 5000
GCRFGTCTVQWLAHFLYQFTDKDKDNVAPRTNVGPQGY [SEQ ID NO: 326] | 0.053 | > 5000
GCRFGTCTVQWLAHFLYQFTDKDKDNVAPRTNVGSNTY [SEQ ID NO: 327] | 0.09 | > 5000
KCNTATCTVQWLAHQIYQFTDADKDNVAPPTNVGSNG[Hyp]-NH2 (disulfide 2-7 (inferred); ends not checked) [SEQ ID NO: 328] | 0.01 | > 5000
KCNTATCTVQWLAHQIYQFDKDKDNVAPPTNVGSNG[Hyp]-NH2 (disulfide 2-7 (inferred); ends not checked) [SEQ ID NO: 329] | 0.032 | > 5000
KCNTATCTVQWLAHQIYQFTDKDKDNVAPPTNVGSNG[Hyp]-NH2 (disulfide 2-7 (inferred); ends not checked) [SEQ ID NO: 330] | 0.008 | > 5000
GCRFGTCTVQWLAHQIYQFTDKDKDNVAPRTNIGPNG[Hyp]-NH2 (disulfide 2-7 (inferred); ends not checked) [SEQ ID NO: 331] | 0.006 | 3570
GCRTGTCTVQWLAHQIYQFTDKDKDNVAPRTNVGPNGY [SEQ ID NO: 332] | 0.007 | > 5000
KCNAATCTVQWLAEQIYQFTDKDKDNVAPPTNVGSNG[Hyp]-NH2 (disulfide 2-7 (inferred); ends not checked) [SEQ ID NO: 333] | 0.236 | 107

Binder | hAMY3R EC50 (cAMP) (hAMY3R) [nM] | hAM1R EC50 (cAMP) (hAM1R) [nM]
KCNTATCTVQWLAHQIYQFTDKDKDNVAPRTEVGSNGY [SEQ ID NO: 334] | 0.013 | > 5000
GCRTGTCTVQWLAHQIYQFTDKDKDNVAPRTNVGPQGY [SEQ ID NO: 335] | 0.015 | > 5000
KCNTATCTVQRLAHQIYQFTDKDKDNVAPRTKVGSNGY [SEQ ID NO: 34] | 0.009 | 54.6
GCRFGTCTVQWLAHQIYQFTDKDKDNVAPRTKIGPQG[Hyp]-NH2 (disulfide 2-7 (inferred); ends not checked) [SEQ ID NO: 336] | 0.029 | 738
GCRFGTCTVQWLAHQIYQFTDKDKDNVAPRTKISPNG[Hyp]-NH2 (disulfide 2-7 (inferred); ends not checked) [SEQ ID NO: 337] | 0.019 | 1580
KCNTATCTVQWLAHQIYQATDKDKDNVAPPTNVGSNG[Hyp]-NH2 (disulfide 2-7 (inferred); ends not checked) [SEQ ID NO: 338] | 0.089 | > 5000
GCRTGTCTVQWLAHQIYQFTDKDKDNVAPRTKIGPNG[Hyp]-NH2 (disulfide 2-7 (inferred); ends not checked) [SEQ ID NO: 339] | 0.047 | > 5000
GCRFGTCTVQWLAHQIYQFTDKDKDNVAPRTNVSPQGY [SEQ ID NO: 340] | 0.022 | 671
GCRTGTCTVQWLAHQIYQFTDKDKDNVAPRTNIGPQG[Hyp]-NH2 (disulfide 2-7 (inferred); ends not checked) [SEQ ID NO: 341] | 0.029 | > 5000
GCRTGTCTVQWLAHQIYQFTDKDKDNVAPRSNVGPQG[Hyp]-NH2 (disulfide 2-7 (inferred); ends not checked) [SEQ ID NO: 342] | 0.054 | > 5000
GCRFGTCTVQWLAHQIYQFTDKDKDNVAPRTKIGPNG[Hyp]-NH2 (disulfide 2-7 (inferred); ends not checked) [SEQ ID NO: 343] | 0.017 | 117
GCRTGTCTVQWLAHQIYQFTDKDKDNVAPRSKVGPQGY [SEQ ID NO: 344] | 0.121 | > 5000
GCRFGTCTVQWLAHQIYQFTDKDKDNVAPRSNVSPQGY [SEQ ID NO: 345] | 0.051 | 113
{C20 diacid-γGlu}-KCNTATCTVQRLAHQIQQFTDKDKDNVAPPTNVGSNG[Hyp]-NH2 (disulfide 2-7 (inferred); ends not checked) [SEQ ID NO: 35] | 0.009 | > 5000
GCRTGTCTVQWLAHQIYQFTDKDKDNVAPRSNVGPQGY [SEQ ID NO: 346] | 0.085 | > 5000
GCRTGTCTVQWLAHQIYQFTDKDKDNVAPRSKVGPNG[Hyp]-NH2 (disulfide 2-7 (inferred); ends not checked) [SEQ ID NO: 347] | 0.068 | > 5000
GCRTGTCTVQWLAHQIYQFTDKDKDNVAPRTNIGPNGY [SEQ ID NO: 348] | 0.041 | > 5000
GCRTGTCTVQWLAHQIYQFTDKDKDNVAPRTKVGPQG[Hyp]-NH2 (disulfide 2-7 (inferred); ends not checked) [SEQ ID NO: 349] | 0.046 | > 5000

— patent US12139520B2 (priority 2020, dated 2024)
